{"source": "patent US20050181450A1", "about": "“Novel inositol 1,4,5-trisphosphate (IP3) receptor-binding protein and an IP3 indicator” (priority 2002, published 2005)", "molecules": {"B1": {"name": "IRBIT: novel IP3 receptor-binding protein of 530 amino acids, SEQ ID NO: 1 (protein, listed as Mus musculus)", "chain": "MSMPDAMPLPGVGEELKQAKEIEDAEKYSFMATVTKAPKKQIQFADDMQEFTKFPTKTGRRSLSRSISQSSTDSYSSAASYTDSSDDEVSPREKQQTNSKGSSNFCVKNIKQAEFGRREIEIAEQDMSALISLRKRAQGEKPLAGAKIVGCTHITAQTAVLIETLCALGAQCRWSACNIYSTQNEVAAALAEAGVAVFAWKGESEDDFWWCIDRCVNMDGWQANMILDDGGDLTHWVYKKYPNVFKKIRGIVEESVTGVHRLYQLSKAGKLCVPAMNVNDSVTKQKFDNLYCCRESILDGLKRTTDVMFGGKQVVVCGYGEVGKGCCAALKALGAIVYITEIDPICALQACMDGFRVVKLNEVIRQVDVVITCTGNKNVVTREHLDRMKNSCIVCNMGHSNTEIDVTSLRTPELTWERVRSQVDHVIWPDGKRVVLLAEGRLLNLSCSTVPTFVLSITATTQALALIELYNAPEGRYKQDVYLLPKKMDEYVASLHLPSFDAHLTELTDDQAKYLGLNKNGPFKPNYYRY"}}, "target": "T1, GST-IIab (mouse IP3R1 amino acids 341-923) (Mus musculus, UniProt P11881)", "T1 construct": "made in house; host or cells: Escherichia coli", "T1 sequence (P11881 341-923)": "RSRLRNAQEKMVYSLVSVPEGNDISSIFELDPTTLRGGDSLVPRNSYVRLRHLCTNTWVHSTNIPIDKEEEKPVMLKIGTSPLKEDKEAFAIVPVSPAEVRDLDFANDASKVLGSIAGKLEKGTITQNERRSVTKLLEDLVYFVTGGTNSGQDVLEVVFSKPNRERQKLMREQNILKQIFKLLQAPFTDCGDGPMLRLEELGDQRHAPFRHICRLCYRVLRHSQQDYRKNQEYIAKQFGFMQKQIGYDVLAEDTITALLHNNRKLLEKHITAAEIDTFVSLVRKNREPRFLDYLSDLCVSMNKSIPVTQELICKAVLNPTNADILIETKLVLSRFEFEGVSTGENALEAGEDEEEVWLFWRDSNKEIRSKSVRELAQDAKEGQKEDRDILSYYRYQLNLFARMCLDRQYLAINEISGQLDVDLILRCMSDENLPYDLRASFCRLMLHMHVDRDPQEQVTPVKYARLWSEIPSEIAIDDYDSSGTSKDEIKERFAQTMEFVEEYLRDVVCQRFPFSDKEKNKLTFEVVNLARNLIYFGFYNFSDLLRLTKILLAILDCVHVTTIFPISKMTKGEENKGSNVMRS", "experiment": "GST pulldown with GST-IIab", "format": "binding", "conditions": "IRBIT in high salt extract", "source_text": "The cDNAs encoding the full-length and N-terminal region (amino acids 1-104) of IRBIT were subcloned into the Escherichia coli hexahistidine (His) fusion vector pET-23a(+) (Novagen) to generate IRBIT-His and IRBIT(1-104)-His expression vectors, respectively. The same cDNAs were subcloned into the GST fusion vector pGEX-4T-1 (Amersham Pharmacia Biotech) to generate GST-IRBIT and GST-IRBIT(1-104) expression vectors, respectively. The cDNA fragments encoding the amino acids 1-225, 1-343, 341-923, 600-1248, 916-1581 and 1553-1943 of the amino acid sequence (SEQ ID NO: 7) of mouse IP3R1 were inserted into pGEX-KG to generate GST-Ia, GST-Iab, GST-IIab, GST-IIbIIIa, GST-IIIab and GST-IV expression vectors, respectively. The amino acids 1593-2217 of mouse IP3R1 were inserted into pGEX-4T-1 to obtain GST-IV-Va expression vector. These fusion proteins were expressed in Escherichia coli. GST-EL was expressed in Sf9 cells as described above. […]\nFor the determination of the IRBIT binding region and the critical amino acid residue of IP3R1, the diluted high salt extract was subjected to pulldown assay as described above with 100 pmol of GST, GST-EL, GST-Ia, GST-Iab, GST-IbIIa, GST-IIab, GST-IIbIIIa, GST-IIIab, GST-IV, GST-IV-Va, K508A or R441Q, and analyzed by Western blotting with anti-IRBIT antibody."}
{"molecule": "B1", "values": [{"measurement": "interaction with GST-IIab", "value": "did not interact"}]}
